Source: patent publication US7351690B2, “Knockout identification of target-specific sites in peptides” (priority 2000, dated 2008)
Square brackets hold non-standard residues; d marks the D form. Ends that are not written are not given here. Nle = CCCC[C@H](N)C(=O)O

Tests used:
hMC5-R = target: T1, hMC5-R (Homo sapiens, UniProt P33032); experiment: competitive inhibition binding assay, 125I-NDP-alpha-MSH, hMC5-R membranes; conditions: for % Inhibition at 1 μM at Melanocortin Receptor 5: 1 μM test peptide, 0.4 nM 125I-NDP-alpha-MSH, hMC5-R membranes
T1 construct: expressed in transfected cells
T1 sequence (P33032 whole entry): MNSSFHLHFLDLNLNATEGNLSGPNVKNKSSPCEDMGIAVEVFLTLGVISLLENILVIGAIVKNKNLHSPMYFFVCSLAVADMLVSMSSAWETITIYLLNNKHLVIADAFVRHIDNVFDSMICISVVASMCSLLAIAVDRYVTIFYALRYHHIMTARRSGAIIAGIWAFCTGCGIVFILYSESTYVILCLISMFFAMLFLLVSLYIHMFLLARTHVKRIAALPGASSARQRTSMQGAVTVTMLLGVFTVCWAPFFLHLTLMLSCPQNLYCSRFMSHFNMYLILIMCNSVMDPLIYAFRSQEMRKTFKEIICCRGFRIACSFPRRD
Protocol: (§1) The competitive inhibition binding assay was conducted using membranes prepared from hMC3-R, hMC4-R, hMC5-R, and B-16 mouse melanoma cells (containing MC1-R) using 0.4 nM ^125I-NDP-alpha-MSH (New England Nuclear, Boston, Mass., USA) in 50 mM HEPES buffer containing 1 mM MgCl2, 2 mM CaCl2, and 5 mM KCl, at pH 7.2. The assay tube also contained a chosen concentration of the test peptide of this invention complexed to a rhenium metal ion, typically at a 1 μM concentration, for determining its efficacy in inhibiting the binding of ^125I-NDP-alpha-MSH to its receptor. Non-specific binding was measured by complete inhibition of binding of ^125I-NDP-alpha-MSH in the assay with the presence of 1 μM alpha-MSH. Incubation was for 90 minutes at room temperature, after which the assay mixture was filtered and the membranes washed three times with ice cold buffer. The filter was dried and counted in a gamma counter for remaining radioactivity bound to the membranes. 100% specific binding was defined as the difference in radioactivity (cpm) bound to cell membranes in the absence and presence of 1 μM alpha-MSH. The cpm obtained in presence of test compounds were normalized with respect to 100% specific binding to determine the percent inhibition of ^125I-NDP-alpha MSH binding. Each assay was conducted in triplicate and the actual mean valves are described.

MC1-R = target: T2, MC1-R (Mus musculus, UniProt Q01727); experiment: competitive inhibition binding assay, 125I-NDP-alpha-MSH, B-16 mouse melanoma cell membranes; conditions: for % Inhibition at 1 μM at Melanocortin Receptor 1: 1 μM test peptide, 0.4 nM 125I-NDP-alpha-MSH, B-16 mouse melanoma cell membranes
T2 construct: membranes prepared from hMC3-R, hMC4-R, hMC5-R, and B-16 mouse melanoma cells (containing MC1-R); endogenous in cells; host or cells: B-16 mouse melanoma cells (membranes)
T2 sequence (Q01727 whole entry): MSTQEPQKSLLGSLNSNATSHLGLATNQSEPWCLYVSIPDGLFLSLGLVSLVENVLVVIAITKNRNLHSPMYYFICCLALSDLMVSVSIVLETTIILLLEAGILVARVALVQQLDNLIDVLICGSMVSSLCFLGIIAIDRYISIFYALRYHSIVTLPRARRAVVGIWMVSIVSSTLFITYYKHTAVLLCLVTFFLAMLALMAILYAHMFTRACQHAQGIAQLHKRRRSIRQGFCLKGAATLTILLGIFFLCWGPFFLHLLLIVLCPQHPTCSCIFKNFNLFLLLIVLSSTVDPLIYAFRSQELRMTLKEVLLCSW
Protocol: as §1

hMC3-R = target: T3, hMC3-R (Homo sapiens, UniProt P41968); experiment: competitive inhibition binding assay, 125I-NDP-alpha-MSH, hMC3-R membranes; conditions: for % Inhibition at 1 μM at Melanocortin Receptor 3: 1 μM test peptide, 0.4 nM 125I-NDP-alpha-MSH, hMC3-R membranes
T3 construct: expressed in transfected cells
T3 sequence (P41968 whole entry): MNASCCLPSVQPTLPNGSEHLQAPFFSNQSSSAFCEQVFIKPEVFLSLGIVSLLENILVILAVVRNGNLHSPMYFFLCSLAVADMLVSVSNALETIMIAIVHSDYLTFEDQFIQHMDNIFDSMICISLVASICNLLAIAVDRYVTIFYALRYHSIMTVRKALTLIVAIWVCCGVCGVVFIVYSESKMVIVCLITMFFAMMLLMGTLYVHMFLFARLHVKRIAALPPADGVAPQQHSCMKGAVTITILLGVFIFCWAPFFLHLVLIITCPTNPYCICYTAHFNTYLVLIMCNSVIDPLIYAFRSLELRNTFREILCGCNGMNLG
Protocol: as §1

hMC4-R = target: T4, hMC4-R (Homo sapiens, UniProt P32245); experiment: competitive inhibition binding assay, 125I-NDP-alpha-MSH, hMC4-R membranes; conditions: for % Inhibition at 1 μM at Melanocortin Receptor 4: 1 μM test peptide, 0.4 nM 125I-NDP-alpha-MSH, hMC4-R membranes
T4 construct: expressed in transfected cells
T4 sequence (P32245 whole entry): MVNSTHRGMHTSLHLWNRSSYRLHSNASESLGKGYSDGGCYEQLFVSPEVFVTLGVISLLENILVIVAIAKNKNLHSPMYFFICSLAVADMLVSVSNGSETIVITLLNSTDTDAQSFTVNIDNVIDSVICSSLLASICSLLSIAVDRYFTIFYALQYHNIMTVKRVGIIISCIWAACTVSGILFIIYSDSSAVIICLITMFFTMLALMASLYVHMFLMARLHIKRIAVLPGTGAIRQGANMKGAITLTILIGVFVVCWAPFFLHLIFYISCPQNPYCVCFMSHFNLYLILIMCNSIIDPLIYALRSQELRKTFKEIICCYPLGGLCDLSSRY
Protocol: as §1

Substance	% Inhibition at 1 μM at Melanocortin Receptor 5 (hMC5-R)	% Inhibition at 1 μM at Melanocortin Receptor 1 (MC1-R)	% Inhibition at 1 μM at Melanocortin Receptor 3 (hMC3-R)	% Inhibition at 1 μM at Melanocortin Receptor 4 (hMC4-R)	binding to MC5-R, in words (hMC5-R)	binding to MC1-R, in words (MC1-R)	binding to MC3-R, in words (hMC3-R)	binding to MC4-R, in words (hMC4-R)
Ac-Ser-Tyr-Ser-D-Cys-Nle-Glu-His-Phe-Arg-Trp-Gly-Lys-Pro-Val-NH2 (Ac-SYS[dC][Nle]EHFRWGKPV-NH2; not fully specified (bridges); printed as Ac-Ser-Tyr-Ser-D-Cys-Nle-Glu-His-Phe-Arg-Trp-Gly-Lys-Pro-Val-NH2; numbers in words are those of the source; also: oxorhenium(V) N3S1 chelate (Re(V)=O)) [2-11]	0%	95%	5%	37%	–	–	–	–
Ac-Ser-Tyr-Ser-Nle-Glu-His-Phe-Arg-Trp-Gly-Cys-Lys-Pro-Val-NH2 (Ac-SYS[Nle]EHFRWGCKPV-NH2; not fully specified (bridges); printed as Ac-Ser-Tyr-Ser-Nle-Glu-His-Phe-Arg-Trp-Gly-Cys-Lys-Pro-Val-NH2; numbers in words are those of the source; also: oxorhenium(V) N3S1 chelate (Re(V)=O)) [1-4]	6%	72%	0%	0%	–	–	–	–
Tyr-Val-Nle-Cys-His-D-Phe-Arg-Trp-Asp-Arg-Phe-NH2 (YV[Nle]CH[dF]RWDRF-NH2; not fully specified (bridges); printed as Tyr-Val-Nle-Cys-His-D-Phe-Arg-Trp-Asp-Arg-Phe-NH2; numbers in words are those of the source; also: oxorhenium(V) N3S1 chelate complex (Re=O)) [5-8]	98%	95%	89%	86%	–	–	–	–
Ac-Ser-Tyr-Ser-Nle-Glu-His-Phe-Cys-Arg-Trp-Gly-Lys-Pro-Val-NH2 (Ac-SYS[Nle]EHFCRWGKPV-NH2; not fully specified (bridges); printed as Ac-Ser-Tyr-Ser-Nle-Glu-His-Phe-Cys-Arg-Trp-Gly-Lys-Pro-Val-NH2; numbers in words are those of the source; also: oxorhenium(V) N3S1 chelate (Re(V)=O)) [1-7]	0%	68%	0%	0%	–	–	–	–
Tyr-Val-Nle-Gly-His-Cys-D-Phe-Arg-Trp-Asp-Arg-Phe-NH2 [3-7] (YV[Nle]GHC[dF]RWDRF-NH2; numbers in words are those of the source; also: oxorhenium(V) N3S1 chelate complex (Re=O))	56%	39%	50%	28%	–	–	–	–
Tyr-Val-Nle-Gly-His-Phe-Arg-Trp-Asp-Arg-Phe-NH2 (GHFRWDRF; N-terminal Tyr-Val-Nle, C-terminal amide; printed: Gly-His-Phe-Arg-Trp-Asp-Arg-Phe-) [Parent, reference compound]	–	–	–	–	moderate affinity	high affinity	high affinity	moderate affinity
Ac-Ser-Tyr-Ser-Nle-Glu-His-Phe-Arg-D-Cys-Trp-Gly-Lys-Pro-Val-NH2 (chain 1 Ac-SYS[Nle]EHFR; chain 2 [dC]WGKPV-NH2; not fully specified (bridges); numbers in words are those of the source; also: oxorhenium(V) N3S1 chelate (Re(V)=O)) [2-6]	6%	46%	2%	6%	–	–	–	–
Ac-Ser-Tyr-Ser-Cys-Nle-Glu-His-Phe-Arg-Trp-Gly-Lys-Pro-Val-NH2 (chain 1 Ac-SYSC[Nle]; chain 2 EHFRWGKPV-NH2; not fully specified (bridges); printed as Ac-Ser-Tyr-Ser-Cys-Nle-Glu-His-Phe-Arg-Trp-Gly-Lys-Pro-Val-NH2; also: oxorhenium(V) N3S1 chelate (Re(V)=O)) [1-11]	6%	95%	18%	21%	–	–	–	–
Tyr-Val-Nle-Gly-His-D-Phe-Arg-Trp-Asp-Arg-Phe-Cys-NH2 (FRWDRFC; Tyr-Val-Nle-Gly-His N-term; D-residue; amide; printed: Phe-Arg-Trp-Asp-Arg-Phe-Cys-) [3-1]	102%	95%	96%	98%	–	–	–	–
Tyr-Val-Nle-Gly-His-Phe-Arg-Trp-Cys-Asp-Arg-Phe-NH2 (YV[Nle]GHFRWCDRF-NH2; numbers in words are those of the source; also: oxorhenium(V) N3S1 chelate (Re=O) with Cys) [4-4]	47%	52%	20%	39%	–	–	–	–
Tyr-Val-Nle-Cys-Gly-His-D-Phe-Arg-Trp-Asp-Arg-Phe-NH2 (YV[Nle]CGH[dF]RWDRF-NH2; not fully specified (bridges); printed as Tyr-Val-Nle-Cys-Gly-His-D-Phe-Arg-Trp-Asp-Arg-Phe-NH2; numbers in words are those of the source; also: oxorhenium(V) N3S1 chelate complex (Re=O)) [3-10]	86%	84%	78%	80%	–	–	–	–
Tyr-Val-Nle-Gly-His-Phe-Arg-Trp-Asp-Arg-Phe-Cys-NH2 (GHFRWDRFC; N-terminal Tyr-Val-Nle; C-terminal amide; printed: Gly-His-Phe-Arg-Trp-Asp-Arg-Phe-Cys-) [4-1]	41%	56%	69%	36%	–	–	–	–
Tyr-Val-Cys-Nle-Gly-His-D-Phe-Arg-Trp-Asp-Arg-Phe-NH2 (YVC[Nle]GH[dF]RWDRF-NH2; also: Re complex) [3-11]	92%	95%	85%	82%	–	–	–	–
Tyr-Val-Nle-Gly-His-D-Phe-Arg-Trp-Cys-Asp-Arg-Phe-NH2 (YV[Nle]GH[dF]RWCDRF-NH2; also: Re complex) [3-4]	100%	98%	88%	94%	–	–	–	–
Tyr-Val-Nle-Gly-Cys-His-Phe-Arg-Trp-Asp-Arg-Phe-NH2 (YV[Nle]GCHFRWDRF-NH2; not fully specified (bridges); printed as Tyr-Val-Nle-Gly-Cys-His-Phe-Arg-Trp-Asp-Arg-Phe-NH2; numbers in words are those of the source; also: oxorhenium(V) N3S1 chelate (Re=O) with Cys) [4-8]	45%	13%	33%	−1%	–	–	–	–
